Laboratory results from patent publication US20080220450A1 (published 2008).

What follows are binders tested against HLA-DR6(13) (human) (assay: binding to purified HLA).

Row | IC50 [nM] | Binder
1 | 2010 | GSISYPARYANAMAV [B. lentus subtilisin epitope peptide, amino acids 157-171]
2 | 559 | SYPARYANAMAVGAT [B. lentus subtilisin epitope peptide, amino acids 160-174]
3 | 9.8 | NGIEWAIANNMDVIN [B. amyloliquifaciens subtilisin BPN' Y217L epitope peptide, amino acids 109-123]

Each binder was assayed against DRB1*0405 (DR4w15) (assay: binding to purified HLA).

Row | IC50 [nM] | Binder
4 | 6780 | GSISYPARYANAMAV [B. lentus 157]
5 | 37 | NGIEWAIANNMDVIN [BPN' Y217L .109]
6 | 1350 | SYPARYANAMAVGAT [B. lentus .160]
7 | 166 | GTVAALNNSIGVLGV [BPN' Y217L .70]

The binders below were run against DRB1*0401 (DR4w4) (assay: binding to purified HLA).

Row | IC50 [nM] | Binder
8 | 4790 | GSISYPARYANAMAV [B. lentus 157]
9 | 30 | NGIEWAIANNMDVIN [BPN' Y217L .109]
10 | 142 | SYPARYANAMAVGAT [B. lentus .160]
11 | 33 | GTVAALNNSIGVLGV [BPN' Y217L .70]

What follows are binders tested against DRB1*1201 (DR5w12) (assay: binding to purified HLA).

Row | IC50 [nM] | Binder
12 | 1240 | NGIEWAIANNMDVIN [BPN' Y217L .109]
13 | 80 | GTVAALNNSIGVLGV [BPN' Y217L .70]

What follows are binders tested against DRB3*0101 (DR52a) (assay: binding to purified HLA).

Row | IC50 [nM] | Binder
14 | > 9430 | GSISYPARYANAMAV [B. lentus 157]
15 | 119 | NGIEWAIANNMDVIN [BPN' Y217L .109]
16 | 6160 | SYPARYANAMAVGAT [B. lentus .160]
17 | 2010 | GTVAALNNSIGVLGV [BPN' Y217L .70]

The binders below were run against DRB1*1101 (DR5w11) (assay: binding to purified HLA).

Row | IC50 [nM] | Binder
18 | 3020 | NGIEWAIANNMDVIN [BPN' Y217L .109]
19 | 5550 | SYPARYANAMAVGAT [B. lentus .160]
20 | 2380 | GTVAALNNSIGVLGV [BPN' Y217L .70]

These binders were tested against DRB1*0802 (DR8w2) (assay: binding to purified HLA).

Row | IC50 [nM] | Binder
21 | > 16300 | GSISYPARYANAMAV [B. lentus 157]
22 | 2190 | NGIEWAIANNMDVIN [BPN' Y217L .109]
23 | 2030 | SYPARYANAMAVGAT [B. lentus .160]
24 | 1710 | GTVAALNNSIGVLGV [BPN' Y217L .70]

Each binder was assayed against DRB1*0404 (DR4w14) (assay: binding to purified HLA).

Row | IC50 [nM] | Binder
25 | 7580 | GSISYPARYANAMAV [B. lentus 157]
26 | 166 | NGIEWAIANNMDVIN [BPN' Y217L .109]
27 | 5540 | SYPARYANAMAVGAT [B. lentus .160]
28 | 5.7 | GTVAALNNSIGVLGV [BPN' Y217L .70]

The binders below were run against DQA1*0301/DQB1*0301 (DQ3.1) (assay: binding to purified HLA).

Row | IC50 [nM] | Binder
29 | 6010 | GSISYPARYANAMAV [B. lentus 157]
30 | 2180 | NGIEWAIANNMDVIN [BPN' Y217L .109]
31 | 63 | SYPARYANAMAVGAT [B. lentus .160]
32 | 440 | GTVAALNNSIGVLGV [BPN' Y217L .70]

These binders were tested against DRB5*0101 (DR2w2β2) (assay: binding to purified HLA).

Row | IC50 [nM] | Binder
33 | 1020 | NGIEWAIANNMDVIN [BPN' Y217L .109]
34 | 1730 | SYPARYANAMAVGAT [B. lentus .160]
35 | 15700 | GTVAALNNSIGVLGV [BPN' Y217L .70]

Each binder was assayed against DQA1*0501/DQB1*0201 (DQ2) (assay: binding to purified HLA).

Row | IC50 [nM] | Binder
36 | 6160 | GSISYPARYANAMAV [B. lentus 157]
37 | 97 | NGIEWAIANNMDVIN [BPN' Y217L .109]
38 | 1300 | SYPARYANAMAVGAT [B. lentus .160]
39 | 670 | GTVAALNNSIGVLGV [BPN' Y217L .70]

What follows are binders tested against DRB1*0301 (DR3w17) (assay: binding to purified HLA).

Row | IC50 [nM] | Binder
40 | 16400 | GSISYPARYANAMAV [B. lentus 157]
41 | 8740 | GTVAALNNSIGVLGV [BPN' Y217L .70]

Each binder was assayed against DRB1*1501 (DR2w2β1) (human) (assay: binding to purified HLA).

Row | IC50 [nM] | Binder
42 | 865 | GSISYPARYANAMAV [B. lentus 157]
43 | 683 | NGIEWAIANNMDVIN [BPN' Y217L .109]
44 | 21 | GTVAALNNSIGVLGV [BPN' Y217L .70]

Each binder was assayed against DRB4*0101 (DRw53) (assay: binding to purified HLA).

Row | IC50 [nM] | Binder
45 | > 9670 | GSISYPARYANAMAV [B. lentus 157]
46 | 1070 | NGIEWAIANNMDVIN [BPN' Y217L .109]
47 | 8260 | SYPARYANAMAVGAT [B. lentus .160]
48 | 31 | GTVAALNNSIGVLGV [BPN' Y217L .70]

These binders were tested against DRB1*0901 (DR9) (assay: binding to purified HLA).

Row | IC50 [nM] | Binder
49 | 1480 | GSISYPARYANAMAV [B. lentus 157]
50 | 43 | NGIEWAIANNMDVIN [BPN' Y217L .109]
51 | 164 | SYPARYANAMAVGAT [B. lentus .160]
52 | 46 | GTVAALNNSIGVLGV [BPN' Y217L .70]

What follows are binders tested against DRB1*0701 (DR7) (assay: binding to purified HLA).

Row | IC50 [nM] | Binder
53 | 724 | GSISYPARYANAMAV [B. lentus 157]
54 | 58 | NGIEWAIANNMDVIN [BPN' Y217L .109]
55 | 138 | SYPARYANAMAVGAT [B. lentus .160]
56 | 154 | GTVAALNNSIGVLGV [BPN' Y217L .70]

Each binder was assayed against DQA1*0301/DQB1*0302 (DQ3.2) (assay: binding to purified HLA).

Row | IC50 [nM] | Binder
57 | 5010 | GSISYPARYANAMAV [B. lentus 157]
58 | 80 | NGIEWAIANNMDVIN [BPN' Y217L .109]
59 | 1050 | SYPARYANAMAVGAT [B. lentus .160]
60 | 2070 | GTVAALNNSIGVLGV [BPN' Y217L .70]

Each binder was assayed against DRB1*0101 (DR1) (human, UniProt P01903 26-254) (assay: binding to purified HLA).

Row | IC50 [nM] | Binder
61 | 1060 | GSISYPARYANAMAV [B. lentus 157]
62 | 8.8 | NGIEWAIANNMDVIN [BPN' Y217L .109]
63 | 13 | SYPARYANAMAVGAT [B. lentus .160]
64 | 6.5 | GTVAALNNSIGVLGV [BPN' Y217L .70]
